Biological target: Sho1 SH3 (SHO1_YEAST), P40073
Assay: SPOT array

Sho1 SH3 (SHO1_YEAST), P40073, sequence (P40073 295-366): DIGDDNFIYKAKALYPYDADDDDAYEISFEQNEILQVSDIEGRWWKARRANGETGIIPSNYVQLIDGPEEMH

Binder | normalised SPOT signal, Boehringer light units (BLU); mean over the file's lines of this peptide
PSNPALPKKLLNVP [345-358 negative regulator of early meiotic genes] | 178
PVGPKVPAKEPSPK [874-887 Hypothetical ORF] | 5820
PVYPSLPERSKVIL [44-57 telomere binding protein] | 210
QDSPDMPEKESVYV | 118
QEKPLTPLKYTKLI [160-173 subunit of the chromatin remodeling Snf/Swi complex] | 143
QGEPLDPKRPSTAS [141-154 glucosidase I] | 124
QGLPASPSRAALRY [55-68 chitin synthase 2] | 140
QGQPLPPPRGQVIL [287-300 Hypothetical ORF] | 159
QGYPRQPQRPQRYH [27-40 "heat shock protein similar to HSP26, involved in cytoskeleton assembly"] | 195
QIFPKKPLRRTVMS [166-179 involved in ion homeostasis] | 534
QKTPPSPAKPKQKT [26-39 Component of the exocyst complex; homolog in rat brain called rExo84.] | 203
QLFPVRPVRVRHED [198-211 " RNA polymerase III (C) subunit, homologus to human BN51 protein"] | 95.2
QLLPNVPDKVLVPG [391-404 binds to single-stranded TG1-3 telomere G-tails] | 46.5
QLTPLLPDKYFDSA [693-706 putative transcription factor] | 57.6
QNTPPLPPKPKSPH [175-188 homologous to mouse and human Tsg101 tumor susceptibility genes] | 8430
QPAPRIPSKDAIIS [100-113 transcription factor] | 498
QRHPKSPVKKPMTS [878-891 involved in bud site selection] | 190
QSNPTSPTKQTFTI [600-613 BEM1-binding protein] | 39.1
QSQPPRPPRPAANL [24-37 Hypothetical ORF] | 128
QTSPGQPRKGQNGS [427-440 soluble tyrosine-specific protein phosphatase] | 61.3

Binder | normalised SPOT signal, Boehringer light units (BLU); mean over the file's lines of this peptide
QYIPPPPPKYINSK [482-495 Ume6p is a C6 zinc finger URS1-binding protein.] | 304
QYYPEEPTKPTVKT [6-19 gamma-aminobutyrate (GABA) transaminase (4-aminobutyrate aminotransferase)] | 111
RAVPILPPRNNVEP [543-556 Hypothetical ORF] | 126
RERPLEPPRKPMAS | 554
RGTPANPGRVATLI [47-60 Hypothetical ORF] | 123
RIPPTVPSKIIDVV [7-20 Hypothetical ORF] | 521
RKRPAPPKKKAPST [82-95 ISWI One Complex] | 208
RLIPTSPQKTNINT [14-27 Hypothetical ORF] | 85.2
RNEPVKPFRNIDLK [29-42 delta-1-pyrroline-5-carboxylate dehydrogenase] | 87.5
RPNPTQPRKPLDSK [776-789 vacuolar import degradation] | 99.9
RPPPLTPEKNLYLT [258-271 Putative participant in 3' mRNA processing] | 117
RPSPWLPSKPNSYH | 1300
RPTPRKPSRMATDH [8-21 Transmembrane osmosensor] | 1440
RRGPGRPRKDASTS [204-217 nuclear protein involved in silencing] | 998
RRKPHSPNKKKPKE [12-25 Hypothetical ORF] | 173
RVHPEPPNKPGITT [407-420 Hypothetical ORF] | 149
SAFPQSPIRAYGST [1382-1395 negative regulator of early meiotic genes] | 75.1
SALPILPKREVVTR [19-32 soluble cell wall protein] | 141
SASPTLPTRRSRRL [62-75 Hypothetical ORF] | 212
SASPYRPQRLPAKF [13-26 Hypothetical ORF] | 118

Binder | normalised SPOT signal, Boehringer light units (BLU); mean over the file's lines of this peptide
SDKPLTPTKTSSTL [341-354 DNA Damage Inducible; binds to T- and V- snare complexes] | 135
SDLPSSPIKAPNVE [232-245 DNA replication helicase] | 191
SEEPTSPTRQVNPE [443-456 Putative participant in 3' mRNA processing] | 157
SELPKSPYRQKPTQ [124-137 " involved in meiosis, nuclear division and spore formation"] | 200
SGKPKKPYRRWTPE [666-679 negative regulator of prp genes] | 233
SGKPLFPGRDYHHQ [221-234 MAP protein kinase homolog involved in pheromone signal transduction] | 103
SHLPLIPEKIKSLK [203-216 similar to E. coli DinB and S. cerevisiae REV1] | 175
SHQPYLPIKNKNIV [329-342 Hypothetical ORF] | 65.5
SKFPELPSKVHNAV [141-154 methionyl tRNA synthetase] | 124
SKGPRTPAKEILEF [310-323 " similar to Est1, which is a putative component of telomerase"] | 1610
SKIPMLPSRRTMAG [505-518 Meiotic regulatory protein; Cys-His zinc fingers] | 1130
SLAPVYPLKSLLRI [665-678 Hypothetical ORF] | 91.3
SLPPTPPYKAHKKK [353-366 Hypothetical ORF] | 544
SMYPGLPSRLEKEL [307-320 actin-related protein] | 334
SNDPIPPPRKVSDV [457-470 transcriptional activator of the SKN7 mediated 'two-component' regulatory system] | 108
SNFPDFPLKKYLKN [333-346 Hypothetical ORF] | 115
SNNPSKPRKYKTKS [110-123 Hypothetical ORF] | 332
SNSPISPHKLIYKN [473-486 positive transcriptional regulator of ADH2 and peroxisomal protein genes] | 86.9
SNSPQIPKKKVKDQ [1825-1838 Hypothetical ORF] | 67.2
